This note sets out measurements from patent US20200055914A1.

The nature of series [1]: size-exclusion chromatography, zinc- and phenol-free (self-association control).
In series [2] the target is lectin-purified insulin receptor (isoform B) (UniProt P06213). The series is described as follows: receptor-binding assay with lectin-purified insulin receptor.

As for Lys^B28, Pro^B29 (Lispro) insulin, in series [1], the “molecular weight by SEC” value was “The molecular weight (MW; or molecular mass) of the species was 3.1 kDa”.
Substance “Trp^B26, Orn^B29 insulin analogue (ligand)” returned an affinity relative to human insulin in series [2] of 50%.
